In patent publication US20220332804A1 (CSL INNOVATION, published 2022) one finds Fold diff data, which are given here for one molecule.

Holding throughout (assay): SPR; KD relative to WT C2;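 further: biacore SPR at 37 °C, anti-C2 mAbs captured on an anti-human IgG chip, alanine or serine C2 surface mutants tested, KD from 1:1 fit compared with wild-type C2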
For assay [1], the target named is T1, human C2 D419A (human, UniProt P06681 21-752).
T1 sequence: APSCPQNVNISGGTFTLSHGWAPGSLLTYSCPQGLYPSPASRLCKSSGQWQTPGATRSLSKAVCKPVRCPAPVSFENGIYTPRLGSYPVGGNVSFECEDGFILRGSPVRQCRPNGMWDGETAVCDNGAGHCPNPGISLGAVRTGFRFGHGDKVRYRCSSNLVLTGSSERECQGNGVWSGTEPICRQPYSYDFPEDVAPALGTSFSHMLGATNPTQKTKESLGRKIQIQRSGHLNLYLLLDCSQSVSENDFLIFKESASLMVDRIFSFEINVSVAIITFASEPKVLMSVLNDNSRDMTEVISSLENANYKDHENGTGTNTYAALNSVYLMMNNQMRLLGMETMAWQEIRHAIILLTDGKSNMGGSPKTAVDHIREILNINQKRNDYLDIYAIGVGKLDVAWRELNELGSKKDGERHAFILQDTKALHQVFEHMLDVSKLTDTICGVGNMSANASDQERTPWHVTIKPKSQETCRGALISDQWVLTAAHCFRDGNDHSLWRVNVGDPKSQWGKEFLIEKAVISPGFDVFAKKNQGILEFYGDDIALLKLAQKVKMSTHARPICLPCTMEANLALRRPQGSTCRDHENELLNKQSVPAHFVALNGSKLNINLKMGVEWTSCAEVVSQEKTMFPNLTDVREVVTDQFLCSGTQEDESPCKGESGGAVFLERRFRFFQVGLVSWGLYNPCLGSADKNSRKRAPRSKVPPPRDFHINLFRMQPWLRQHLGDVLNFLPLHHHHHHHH

Assay [2] addresses T2, human C2 S456A (human, UniProt P06681 21-752).
T2 sequence: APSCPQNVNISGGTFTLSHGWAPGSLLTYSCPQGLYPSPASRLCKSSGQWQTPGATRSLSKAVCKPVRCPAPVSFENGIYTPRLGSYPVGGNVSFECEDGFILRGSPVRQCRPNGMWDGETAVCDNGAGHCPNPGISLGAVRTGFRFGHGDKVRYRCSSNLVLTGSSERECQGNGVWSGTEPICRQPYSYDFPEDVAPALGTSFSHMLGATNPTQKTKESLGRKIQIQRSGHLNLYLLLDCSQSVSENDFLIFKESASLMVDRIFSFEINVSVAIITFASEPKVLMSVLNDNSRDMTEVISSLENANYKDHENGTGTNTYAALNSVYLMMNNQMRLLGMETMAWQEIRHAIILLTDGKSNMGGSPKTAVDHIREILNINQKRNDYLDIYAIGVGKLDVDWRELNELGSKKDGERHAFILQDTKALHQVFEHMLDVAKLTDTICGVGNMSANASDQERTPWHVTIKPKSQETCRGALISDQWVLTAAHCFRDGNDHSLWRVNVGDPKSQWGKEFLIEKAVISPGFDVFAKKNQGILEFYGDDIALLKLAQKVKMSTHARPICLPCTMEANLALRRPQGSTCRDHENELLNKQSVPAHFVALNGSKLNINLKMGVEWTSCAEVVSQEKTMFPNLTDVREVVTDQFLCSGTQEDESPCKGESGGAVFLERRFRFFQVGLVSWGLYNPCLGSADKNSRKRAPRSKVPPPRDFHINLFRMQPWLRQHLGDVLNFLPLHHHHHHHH

Assay [3] addresses T3, human C2 A444S (human, UniProt P06681 21-752).
T3 sequence: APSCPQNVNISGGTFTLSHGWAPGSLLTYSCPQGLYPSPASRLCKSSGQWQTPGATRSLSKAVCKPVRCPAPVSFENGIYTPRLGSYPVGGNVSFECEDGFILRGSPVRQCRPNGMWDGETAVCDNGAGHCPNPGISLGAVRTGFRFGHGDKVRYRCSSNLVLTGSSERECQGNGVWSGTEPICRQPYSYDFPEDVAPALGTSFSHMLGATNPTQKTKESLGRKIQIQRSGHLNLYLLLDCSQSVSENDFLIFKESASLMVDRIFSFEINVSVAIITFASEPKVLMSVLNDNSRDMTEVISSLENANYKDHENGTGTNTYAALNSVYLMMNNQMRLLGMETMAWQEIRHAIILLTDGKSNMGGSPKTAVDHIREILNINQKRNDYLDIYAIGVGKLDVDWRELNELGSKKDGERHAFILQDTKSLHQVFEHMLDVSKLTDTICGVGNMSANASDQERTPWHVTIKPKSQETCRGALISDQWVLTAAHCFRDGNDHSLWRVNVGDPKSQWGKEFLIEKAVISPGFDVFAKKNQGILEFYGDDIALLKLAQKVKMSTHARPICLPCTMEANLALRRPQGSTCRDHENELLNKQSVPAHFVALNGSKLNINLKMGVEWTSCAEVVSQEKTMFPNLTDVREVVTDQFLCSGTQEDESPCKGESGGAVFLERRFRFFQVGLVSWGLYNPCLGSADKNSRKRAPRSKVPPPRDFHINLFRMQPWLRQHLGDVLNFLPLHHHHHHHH

In assay [4] the target is T4, human C2 F689A (human, UniProt P06681 21-752).
T4 sequence: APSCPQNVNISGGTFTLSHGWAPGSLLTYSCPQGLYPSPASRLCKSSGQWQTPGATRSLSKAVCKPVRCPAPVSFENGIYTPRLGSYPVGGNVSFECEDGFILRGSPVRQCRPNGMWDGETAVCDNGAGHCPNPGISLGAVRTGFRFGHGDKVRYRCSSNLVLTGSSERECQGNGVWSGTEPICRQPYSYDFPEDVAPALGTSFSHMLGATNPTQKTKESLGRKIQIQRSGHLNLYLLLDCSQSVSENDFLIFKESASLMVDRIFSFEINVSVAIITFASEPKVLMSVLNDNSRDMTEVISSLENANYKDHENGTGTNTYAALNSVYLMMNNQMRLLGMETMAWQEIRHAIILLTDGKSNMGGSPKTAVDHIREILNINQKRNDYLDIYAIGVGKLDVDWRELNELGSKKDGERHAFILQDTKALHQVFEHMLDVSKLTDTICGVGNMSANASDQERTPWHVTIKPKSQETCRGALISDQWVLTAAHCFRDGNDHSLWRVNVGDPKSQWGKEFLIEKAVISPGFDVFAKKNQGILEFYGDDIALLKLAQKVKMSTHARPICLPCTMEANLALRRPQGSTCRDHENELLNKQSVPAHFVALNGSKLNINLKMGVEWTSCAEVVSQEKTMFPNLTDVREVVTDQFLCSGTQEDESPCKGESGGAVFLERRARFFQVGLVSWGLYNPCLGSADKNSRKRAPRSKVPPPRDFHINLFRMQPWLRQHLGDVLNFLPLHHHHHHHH

B1: RF16-214 (antibody, V domains shown)
VH: EVQLLESGGGLVQPGGSLRLSCAASGFTFSWYQMMWVRQAPGKGLEWVSRIYPSGGGTAYADSVKGRFTISRDNSKNTLYLQMNSLRAEDTAVYYCARDAGYGDNWGQGTLVTVSS
VL: QSALTQPPSVSVSPGQTASITCSGDKLGEKYASWYQQKAGQSPVMVIYQDRKRPSGIPERFSGSNSGNTATLTISGTQAMDEADYYCQAWDTRAVVFGGGTKLTVLG
With B1, the Fold diff in assay [1] amounted to 2 fold; in assay [2], 5 fold; in assay [3], 1 fold; in assay [4] it was 1 fold.
